From article PMC9478924

T1: EVA-P974, A0A023
T1 chain: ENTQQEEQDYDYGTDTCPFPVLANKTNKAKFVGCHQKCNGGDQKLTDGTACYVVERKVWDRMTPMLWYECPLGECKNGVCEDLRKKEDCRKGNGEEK

T2: EVA-4, P0C8E9
T2 chain: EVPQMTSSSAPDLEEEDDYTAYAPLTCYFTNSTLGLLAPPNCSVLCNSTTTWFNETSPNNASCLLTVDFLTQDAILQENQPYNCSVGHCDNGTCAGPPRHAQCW


What was measured:
Test in all cases: SPR
[1] = biological target: CHI-1R (not stated | Rhipicephallus pulchellus (zebra tick or yellow back tick))
CHI-1P = biological target: CHI-1P
[2] = biological target: EVA-RPU02 (Rhipicephallus pulchellus (zebra tick or yellow back tick))
EVA-P974, A0A023 = biological target: T1, EVA-P974, A0A023; settings: remark: other sources report otherwise
[3] = biological target: CHI-PR (not stated | Rhipicephallus pulchellus (zebra tick or yellow back tick))
EVA-4, P0C8E9 = biological target: T2, EVA-4, P0C8E9; settings: remark: other sources report otherwise
[4] = biological target: CHI-R1 (Rhipicephallus pulchellus (zebra tick or yellow back tick) | not stated)
CHI-P1 = biological target: CHI-P1

Binder	Kd [1]	Kd (CHI-1P)	Kd [2]	koff [2]	kon [2]	also measured
CCL22 (ligand) GPYGANMEDSVCCRDYVRYRLPLRVVKHFYWTSDSCPRPGVVLLTFRDKEICADPRVPWVKMILNKLSQ	> 500 nM	25 nM				
CCL15 (ligand) QFTNDAETELMMSKLPLENPVVLNSFHFAADCCTSYISQSIPCSLMKSYFETSSECSKPGVIFLTKKGRQVCAKPSGPGVQDCMKKLKPYSI			503 nM	0.069 s⁻¹	140000 M⁻¹ s⁻¹	
CCL15, Q16663 22-113 (ligand, here or on the partner: biotin on the Avi-tag (Bir-A ligase)) QFTNDAETELMMSKLPLENPVVLNSFHFAADCCTSYISQSIPCSLMKSYFETSSECSKPGVIFLTKKGRQVCAKPSGPGVQDCMKKLKPYSI						Kd (EVA-P974, A0A023): 299 nM
CCL18 (ligand) AQVGTNKELCCLVYTSWQIPQKFIVDYSETSPQCPKPGVILLTKRGRQICADPNKKWVQKYISDLKLNA	> 500 nM	206 nM	651 nM	0.35 s⁻¹	490000 M⁻¹ s⁻¹	Kd [3]: 315 nM
CCL16 (ligand) QPKVPEWVNTPSTCCLKYYEKVLPRRLVVGYRKALNCHLPAIIFVTKRNREVCTNPNDDWVQEYIKDPNLPLLPTRNLSTVKIITAKNGQPQLLNSQ	> 500 nM	182 nM				
CCL4, P13236 24-92 (ligand, here or on the partner: biotin on the Avi-tag (Bir-A ligase)) APMGSDPPTACCFSYTARKLPRNFVVDYYETSSLCSQPAVVFQTKRSKQVCADPSESWVQEYVYDLELN						Kd (EVA-4, P0C8E9): 158 nM
CCL14 (ligand) TKTESSSRGPYHPSECCFTYTTYKIPRQRIMDYYETNSQCSKPGIVFITKRGHSVCTNPSDKWVQDYIKDMKEN	60 nM	149 nM	32.4 nM	0.024 s⁻¹	580000 M⁻¹ s⁻¹	Kd [4]: 134 nM; Kd (CHI-P1): 79 nM
CCL1 (ligand) KSMQVPFSRCCFSFAEQEIPLRAILCYRNTSSICSNEGLIFKLKRGKEACALDTVGWVQRHRKMLRHCPSKRK		191 nM				
